Assay results from publication PMC4212835.

Molecular target: Enterococcus faecalis pyruvate dehydrogenase complex component E2 (dihydrolipoamide acetyltransferase) (Enterococcus faecalis)
Experiment: SEC

| Substance | relative abundance of subunits E1, E2, and E3 (mass ratio, E2 = 1) [mass ratio] |
| --- | --- |
| Enterococcus faecalis pyruvate dehydrogenase complex component E1 (pyruvate dehydrogenase; E1α and E1β) (from UniProt A0ACD6TC15 1-371) | 2.27 |
| Enterococcus faecalis pyruvate dehydrogenase complex component E3 (dihydrolipoyl dehydrogenase) (from UniProt A0ACD6TCW3 1-468) (enzyme) | 1.26 |
